The target in experiment [1] is T1, FX activation peptide 12-mer QATSSSGEAPDS (human).
T1 peptide: QATSSSGEAPDS-biotin
Kind of experiment: peptide ELISA. Put shortly: (§1)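 Nanobodies (FLAG-tagged) or IgG antibodies, 2 μg/mL, incubated 1 h on C-terminally biotinylated peptide captured via streptavidin, washing buffer pH 8.60 containing CaCl₂ and Tween 20. Read-out: HRP-conjugated secondary antibody with TMB colour development.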

The target in experiment [2] is T2, FX activation peptide 12-mer ATSSSGEAPDSI (human).
T2 peptide: ATSSSGEAPDSI-biotin
Kind of experiment: peptide ELISA. In short, it runs like this:
as §1
Background: In an ELISA, binding on a coated surface is turned into a signal by an enzyme label.

In experiment [3] the target is T3, FX activation peptide 12-mer TSSSGEAPDSIT (human).
T3 peptide: TSSSGEAPDSIT-biotin
Kind of experiment: peptide ELISA. In short, it runs like this:
as §1

Experiment [4] concerns the target T4, FX activation peptide 12-mer SSSGEAPDSITW (human).
T4 peptide: SSSGEAPDSITW-biotin
The experiment is described as follows: peptide ELISA. Put shortly: as §1

Experiment [5] has as its target T5, FX activation peptide 12-mer SSGEAPDSITWK (human).
T5 peptide: SSGEAPDSITWK-biotin
The experiment is described as follows: peptide ELISA. In short, it runs like this: as §1

Experiment [6] addresses T6, FX activation peptide 12-mer SGEAPDSITWKP (human).
T6 peptide: SGEAPDSITWKP-biotin
The experiment is described as follows: peptide ELISA. Put shortly: as §1

Experiment [7] deals with T7, FX activation peptide 12-mer PDSITWKPYDAA (human).
T7 peptide: PDSITWKPYDAA-biotin
The experiment is described as follows: peptide ELISA. In short, it runs like this: as §1

Experiment [8] addresses T8, FX activation peptide 12-mer DSITWKPYDAAD (human).
T8 peptide: DSITWKPYDAAD-biotin
The experiment is described as follows: peptide ELISA. Put shortly:
as §1

The target of experiment [9] is T9, FX activation peptide 12-mer SITWKPYDAADL (human).
T9 peptide: SITWKPYDAADL-biotin
Kind of experiment: peptide ELISA. In short, it runs like this:
as §1

The target of experiment [10] is T10, FX activation peptide 12-mer ITWKPYDAADLD (human).
T10 peptide: ITWKPYDAADLD-biotin
The experiment is described as follows: peptide ELISA. In short, it runs like this: as §1

Experiment [11] deals with T11, FX activation peptide 12-mer TWKPYDAADLDP (human).
T11 peptide: TWKPYDAADLDP-biotin
Kind of experiment: peptide ELISA. In short, it runs like this: as §1

The target of experiment [12] is T12, FX activation peptide 12-mer WKPYDAADLDPT (human).
T12 peptide: WKPYDAADLDPT-biotin
Kind of experiment: peptide ELISA. Put shortly: as §1

The target in experiment [13] is T13, FX activation peptide 12-mer KPYDAADLDPTE (human).
T13 peptide: KPYDAADLDPTE-biotin
Kind of experiment: peptide ELISA. In short, it runs like this: as §1

The target of experiment [14] is T14, FX activation peptide 12-mer YDAADLDPTENP (human).
T14 peptide: YDAADLDPTENP-biotin
The experiment is described as follows: peptide ELISA. In short, it runs like this: as §1

The target in experiment [15] is T15, FX activation peptide 12-mer DAADLDPTENPF (human).
T15 peptide: DAADLDPTENPF-biotin
Kind of experiment: peptide ELISA. In short, it runs like this: as §1

In experiment [16] the target is T16, FX activation peptide 12-mer AADLDPTENPFD (human).
T16 peptide: AADLDPTENPFD-biotin
Kind of experiment: peptide ELISA. Put shortly:
as §1

Experiment [17] has as its target T17, FX activation peptide 12-mer LDPTENPFDLLD (human).
T17 peptide: LDPTENPFDLLD-biotin
Kind of experiment: peptide ELISA. In short, it runs like this:
as §1

Experiment [18] has as its target T18, FX activation peptide 12-mer DPTENPFDLLDF (human).
T18 peptide: DPTENPFDLLDF-biotin
Kind of experiment: peptide ELISA. In short, it runs like this:
as §1

Experiment [19] concerns the target T19, FX activation peptide 12-mer ENPFDLLDFNQT (human).
T19 peptide: ENPFDLLDFNQT-biotin
Kind of experiment: peptide ELISA. Put shortly: as §1

For experiment [20], the target named is T20, FX activation peptide 12-mer DLLDFNQTQPER (human).
T20 peptide: DLLDFNQTQPER-biotin
The experiment is described as follows: peptide ELISA. In short, it runs like this:
as §1

The target in experiment [21] is T21, FX activation peptide 12-mer LDFNQTQPERGD (human).
T21 peptide: LDFNQTQPERGD-biotin
The experiment is described as follows: peptide ELISA. In short, it runs like this:
as §1

Experiment [22] has as its target T22, FX activation peptide 12-mer FNQTQPERGDNN (human).
T22 peptide: FNQTQPERGDNN-biotin
Kind of experiment: peptide ELISA. Put shortly: as §1

Experiment [23] deals with T23, FX activation peptide 12-mer TQPERGDNNLTR (human).
T23 peptide: TQPERGDNNLTR-biotin
The experiment is described as follows: peptide ELISA. Put shortly:
as §1

Experiment [24] has as its target T24, human plasma-derived Factor X zymogen (human, UniProt P00742 41-179; P00742 183-488).
T24 construct: Plasma-derived, bought (Haematologic Technologies); also called FX; human FX
Kind of experiment: SPR steady state, Nb captured by anti-His mAb, FX injected. As for the experimental part:
Binding of purified anti-FX Nanobodies (Nb) to human plasma-derived FX (Haematologic Technologies Inc, USA) was probed by Surface Plasmon Resonance (SPR) (Biacore T200). Briefly, anti-His mAb (MAB050 from R&D systems) was immobilised on a CM4 sensor chip using standard amine coupling chemistry. Anti-FX Nanobodies (10 nM), according to Table 3, was injected at a flow rate of 10 μL/min for 1 minute. Subsequently 4096, 1024, 256, 64, 16, 4, and 0 nM of FX were injected at a flow rate of 30 μL/min for 4 minutes to allow for binding to anti-FX Nb followed by a 5 minutes running buffer (10 mM HEPES, 150 mM NaCl, 5 mM CaCl₂, 0.05% (v/v) Surfactant P20, 1 mg/mL bovine serum albumin, pH 7.4) injection allowing dissociation from anti-FX Nanobody®. The running buffer was also for dilution of anti-FX Nb and FX samples. Regeneration of the chip was achieved using a regeneration buffer consisting of 3M MgCl₂, 30 seconds contact time, and a 30 μL/min flow rate. The binding data were collected at 25° C. and were analysed according to a 1:1 model using BiaEvaluation 4.1 supplied by the manufacturer (Biacore AB, Uppsala, Sweden).
Therefore, the reported KD values are determined based on steady state analysis. The strongest binder identified is Nb702C12, while the others Nanobodies® tested binds FX with a slightly higher KD and lower Rₘₐₓ.

Ends that are not written are not given here.

T24 sequence (P00742 41-179, chain 1 of 2): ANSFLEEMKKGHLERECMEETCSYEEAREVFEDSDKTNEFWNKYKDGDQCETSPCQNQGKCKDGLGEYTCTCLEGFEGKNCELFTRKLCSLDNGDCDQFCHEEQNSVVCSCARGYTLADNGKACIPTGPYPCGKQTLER
T24 sequence (P00742 183-488, chain 2 of 2): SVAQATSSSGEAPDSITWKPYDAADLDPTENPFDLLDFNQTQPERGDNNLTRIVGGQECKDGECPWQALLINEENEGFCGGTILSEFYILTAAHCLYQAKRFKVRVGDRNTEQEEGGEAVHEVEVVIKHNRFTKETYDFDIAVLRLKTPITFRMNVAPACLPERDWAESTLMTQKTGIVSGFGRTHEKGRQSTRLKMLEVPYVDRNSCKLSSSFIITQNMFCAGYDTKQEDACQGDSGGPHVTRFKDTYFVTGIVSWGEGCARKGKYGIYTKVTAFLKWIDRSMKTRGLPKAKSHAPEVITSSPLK

B1: Nb 701B09 (VHH)
VHH: EVQLVESGGGVVQPGGSLRLSCAASGRTFSTYAMGWFRQAPGKEREFVAAISWSGSRTYYADSVKGRFTISRDNSKNTVYLQMNSLRPEDTALYYCAADATPANGELDYWGQGTLVTVSS
notes: monovalent Nanobody; also called Nb 701609; not shown: C-terminal FLAG3 and HIS6 tag
In the case of B1, the “ELISA signal relative to background” value is 0.77 in [1]; 0.82 in [2]; 0.97 in experiment [3]; 0.84 in experiment [4]; 0.89 in [5]; 0.84 in experiment [6]. In addition, the “ELISA signal relative to background” value in experiment [7] is 0.83; in [8], 0.76; in [9], 0.84; in experiment [10], 0.83; in experiment [11], 0.92; in experiment [12], 1.14. Also, the “ELISA signal relative to background” value in experiment [13] was 0.88; in [14] it was 0.81; in experiment [15], 0.81; in experiment [16], 0.79; in experiment [17] it was 0.84; in [18] it was 2.87. The “ELISA signal relative to background” value in [19] turned out to be 3.43; in [20], 1.17; in experiment [21] it was 0.82; in experiment [22], 0.89; in [23], 0.93. Moreover, in experiment [24], the dissociation constant Kd came out at 2.1 µM.

B2: Nb 701D07 (VHH)
VHH: EVQLVESGGGVVQPGGSLRLSCAASGGTLSRYAMGWFRQAPGKEREFVAAITRRGSRTYYADSVKGRFTISRDNSKNTVYLQMNSLRPEDTALYYCAADLAPGDYALDYWGQGTLVTVSS
notes: monovalent Nanobody; not shown: C-terminal FLAG3 and HIS6 tag
For the molecule B2, the “ELISA signal relative to background” value in [1] was 0.81; in experiment [2], 0.86; in [3] it was 0.75; in experiment [4] it was 0.73; in [5], 0.74; in [6] it was 0.78. Further, the “ELISA signal relative to background” value was determined as 0.84 in experiment [7]; 0.89 in experiment [8]; 1.04 in experiment [9]; 0.89 in [10]; 0.91 in experiment [11]; 0.85 in [12]. The “ELISA signal relative to background” value in experiment [13] amounted to 0.73; in experiment [14], 0.75; in experiment [15], 0.7; in experiment [16] it was 0.69; in experiment [17], 0.8; in [20] it was 0.81. Besides, the “ELISA signal relative to background” value in experiment [21] was determined as 0.79; in experiment [22], 0.82; in experiment [23], 0.88. Besides, binding in experiment [24] was put at a Kd of 2.4 µM.

B3: Nb 702C12 (VHH)
VHH: EVQLVESGGGVVQPGGSLRLSCVASGRTFSRYAMGWFRQAPGKEREFVAAISRRGGSTNYADSVKGRFTISRDNSKNTVYLQMNSLRPEDTALYYCAADYSSGDGYLDYWGQGTLVTVSS
notes: as for B2
In the case of B3, the “ELISA signal relative to background” value in experiment [1] was 0.96; in experiment [2], 0.98; in [3] it was 0.77; in experiment [4], 0.86; in experiment [5], 0.88; in experiment [6], 0.88. Also, the “ELISA signal relative to background” value in experiment [7] is 1.05; in experiment [8], 1.08; in [9], 1.08; in experiment [10], 1.1; in experiment [11] it was 1.13; in [12], 0.89. Further, the “ELISA signal relative to background” value in experiment [13] came out at 0.8; in [14], 0.87; in experiment [15], 0.88; in experiment [16], 0.88; in experiment [17], 1.11; in experiment [18], 4.16. Moreover, the “ELISA signal relative to background” value in experiment [19] is 4; in experiment [20] it was 3.08; in experiment [21] it was 0.97; in experiment [22] it was 1; in experiment [23], 1.05. In [24], the Kd is 1.2 µM.

By Kd is commonly meant a measure of binding affinity in units of concentration. Lower therefore signals a tighter complex.

(Values after US20210054097A1 (Novo Nordisk, published 2021).)
